In publication PMC9478642:

B1: human T-plastin, full length, wild type [human] / F-actin (filaments of α-actin) [not stated] (parent)
chain 1: MDEMATTQISKDELDELKEAFAKVDLNSNGFICDYELHELFKEANMPLPGYKVREIIQKLMLDGDRNKDGKISFDEFVYIFQEVKSSDIAKTFRKAINRKEGICALGGTSELSSEGTQHSYSEEEKYAFVNWINKALENDPDCRHVIPMNPNTDDLFKAVGDGIVLCKMINLSVPDTIDERAINKKKLTPFIIQENLNLALNSASAIGCHVVNIGAEDLRAGKPHLVLGLLWQIIKIGLFADIELSRNEALAALLRDGETLEELMKLSPEELLLRWANFHLENSGWQKINNFSADIKDSKAYFHLLNQIAPKGQKEGEPRIDINMSGFNETDDLKRAESMLQQADKLGCRQFVTPADVVSGNPKLNLAFVANLFNKYPALTKPENQDIDWTLLEGETREERTFRNWMNSLGVNPHVNHLYADLQDALVILQLYERIKVPVDWSKVNKPPYPKLGANMKKLENCNYAVELGKHPAKFSLVGIGGQDLNDGNQTLTLALVWQLMRRYTLNVLEDLGDGQKANDDIIVNWVNRTLSEAGKSTSIQSFKDKTISSSLAVVDLIDAIQPGCINYDLVKSGNLTEDDKHNNAKYAVSMARRIGARVYALPEDLVEVKPKMVMTVFACLMGRGMKRV
chain 2: not shown

Variants of: B1
Experiment: sequential low-speed/high-speed F-actin cosedimentation assay
Details: with F-actin (filaments of α-actin); 5 μM actin, 2 μM plastin; read off a plot; scale: proportion of T-plastin in low-speed pellet

Variant	response
chain 1 F191A	0.04

Same assay, conditions: with F-actin (filaments of α-actin); 5 μM actin, 2 μM plastin; read off a plot; scale: proportion of T-plastin in low-speed plus high-speed pellet

Variant	response
chain 1 F191A	0.42
